Laboratory results as given in PMC7617670.

Target: PabA variant aY127A (Escherichia coli) (UniProt P00903)
Experiment: ITC; 250 μM PabB titrated into 25 μM PabA in the cell; 25 °C; 50 mM Tris/HCl pH 7.5, 50 mM KCl, 5 mM MgCl2; without Cho and Gln; one set of sites

- Kd: > 8 µM
Substance: PabB, synthase subunit of aminodeoxychorismate synthase (ADCS) from Escherichia coli, wild type (from UniProt P05041 1-453) (enzyme)
